Our source for the Count values is patent publication US20240207421A1, “NERVE TARGETING PEPTIDES AND METHODS OF USE” (ALUME BIOSCIENCES, INC., priority 2020, published 2024).

The assay concerns the target Laminin 421/521. As to the kind of experiment: phage display, NGS count.
In turn, GHPWTEIDFMSS came in with a Count of 50. The result for QTRWDDGSYQIS reads 49. The same measure for QGWFRHS: 121. The result for KQELSDNLASHR reads 50.

As for IPVGERK, the Count worked out at 124. The same measure for HSFLGAR: 44; for CSLANPATC: 52.

Molecule LQSNAADHHQGM showed a Count of 75. The result for ETYKVTRVISPW reads 50.

Turning to VPQIRIK, the Count worked out at 47. The result for GRTIHSM reads 95; that for GKPDHRLVSLWR, 309.

EGHVWSEYTWGT: the Count stood at 50. The result for GDLLLKR reads 47; that for AWNGNRS, 47; that for WAFKAPQ, 61. The same measure for ADMPQMTLKYGV: 47; for RLVTASMVSPSF: 95.

As for QTLQTRH, the Count worked out at 44. The same measure for EYWHQRGSWFHR: 55; for CNHLTQKLC: 45; for WPVRNLL: 67.

YTPRNQL registered a Count of 55. The result for SFRNLEKLSLWS reads 50; that for ALGGEPRKAYQR, 45. KALGYSLVGGEW yielded a Count of 134.

CSHHKLKQC: the Count is 359. The same measure for GDLWNVP: 51.

RAQAHQV returned a Count of 51.

Molecule CGITQTTTC showed a Count of 55. SGWEGKTHQGVR gave a Count of 69. NNNAAMQNHGVR: the Count was 51. The same measure for WGLKLPH: 117; for CTSKLARHC: 45.

Molecule CSKHNHSRC had a Count of 295. The same measure for DGQVSDHSYVQW: 101; for WVAAERR: 115; for ASHSRPLMNYAP: 49.

Consider CMNKIQRDC, for which the Count came out at 131. The result for YHLGPNQKMRTS reads 48; that for HASNQRV, 93. The result for CHQRQQTYC reads 55; that for GEPLTRFPNSDS, 52. The same measure for KPILWNRSLNAL: 52; for ATSKYPNSWAQT: 80. With GGYDLPWANWQN, the Count is 497.

In turn, GSLDMGNNKQPV registered a Count of 62. The result for WDLPTLRKTKQA reads 114; that for DDLLTAPRLGVW, 54. As for GAMMNSNNLVAR, the Count came to 43. In turn, APKVTNARPTQL yielded a Count of 147. The result for WTKHNTPAHHLS reads 89. The same measure for SDRGKTVLHGQI: 54; for VPVFLDQARVMK: 53. The same measure for SWQMRSY: 48; for GSGFRNEEHSAH: 51; for GPKNHHQ: 51. MTHSAHNSQKTN returned a Count of 117. The result for SLAVANTRFMIR reads 49; that for HQSLAGVPWSRH, 53; that for GFADVIHRKWSS, 53. The same measure for LLAGPFR: 44. The same measure for KISMNRLHANFT: 110; for DRLTPITWDWSR: 86. The molecule GGGYHIFGPLVT returned a Count of 43.
